Tests used:
Experiment in all cases: cell_activity; reversed DR/guide order
Conditions in all cases: tags: NLS fusion
[1] = target: T1, Cas13m.3 (uncultured Bacteroidetes bacterium)
T1 chain: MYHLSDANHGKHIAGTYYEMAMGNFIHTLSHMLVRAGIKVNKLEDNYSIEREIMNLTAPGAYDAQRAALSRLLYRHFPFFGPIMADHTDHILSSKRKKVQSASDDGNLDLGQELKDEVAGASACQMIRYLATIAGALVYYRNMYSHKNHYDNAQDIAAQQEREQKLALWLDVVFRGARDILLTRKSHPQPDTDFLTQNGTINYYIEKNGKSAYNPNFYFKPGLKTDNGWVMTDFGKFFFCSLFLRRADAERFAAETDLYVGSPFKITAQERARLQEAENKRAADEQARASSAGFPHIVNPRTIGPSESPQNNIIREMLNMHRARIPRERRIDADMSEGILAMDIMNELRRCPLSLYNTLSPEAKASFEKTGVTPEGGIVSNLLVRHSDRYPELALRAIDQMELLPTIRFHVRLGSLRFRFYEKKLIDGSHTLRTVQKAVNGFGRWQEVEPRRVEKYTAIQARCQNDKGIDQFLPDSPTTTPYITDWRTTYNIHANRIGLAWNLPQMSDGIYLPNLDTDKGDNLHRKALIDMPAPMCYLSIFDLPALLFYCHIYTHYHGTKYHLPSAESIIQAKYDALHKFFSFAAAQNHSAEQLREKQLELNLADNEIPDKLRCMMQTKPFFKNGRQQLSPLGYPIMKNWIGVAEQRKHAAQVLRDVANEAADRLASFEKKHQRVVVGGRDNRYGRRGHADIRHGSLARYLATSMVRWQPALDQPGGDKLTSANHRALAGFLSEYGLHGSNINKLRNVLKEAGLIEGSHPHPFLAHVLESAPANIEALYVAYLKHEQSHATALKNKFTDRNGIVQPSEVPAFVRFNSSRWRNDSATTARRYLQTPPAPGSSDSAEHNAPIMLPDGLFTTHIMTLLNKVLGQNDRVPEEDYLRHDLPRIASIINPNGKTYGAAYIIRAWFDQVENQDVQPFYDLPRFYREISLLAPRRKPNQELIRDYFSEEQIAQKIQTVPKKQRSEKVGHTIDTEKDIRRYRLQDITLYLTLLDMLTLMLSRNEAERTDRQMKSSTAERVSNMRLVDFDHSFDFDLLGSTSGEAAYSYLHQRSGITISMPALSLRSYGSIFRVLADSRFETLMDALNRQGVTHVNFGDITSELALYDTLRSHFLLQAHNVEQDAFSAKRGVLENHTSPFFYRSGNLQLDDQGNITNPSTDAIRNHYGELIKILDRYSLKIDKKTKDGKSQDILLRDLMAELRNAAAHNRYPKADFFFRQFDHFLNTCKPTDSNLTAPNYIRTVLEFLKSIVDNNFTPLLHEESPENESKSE
Description: (§1) 293T-AQp1 cells were transfected with the verification vectors targeting the endogenous gene AQp1 mRNA of Cas13 m.2, Cas13 m.3, Cas13 m.5, CasRfg.2, Cas13 m.2-r, Cas13 m.3-r, Cas13 m.5-r, and CasRfg.2-r, and a control plasmid (which was the same as the verification vector plasmid targeting the endogenous gene AQp1 mRNA of CasRx in the aforementioned Example 5) at 800 ng in a 24-well plate. The negative control group was transfected with the CasRx-BpiI plasmid in the aforementioned Example 5.
(§2) The transfection method was as follows: [0296] 1. The cells were digested by trypsin (0.25% of Trypsin, EDTA, Thermo, 11058021), counted, and plated into a 24-well plates at 2×10⁵ cells according to 500 uL per well. [0297] 2. For each transfected sample, the complex was prepared according to the following steps: [0298] a. each well of the 24-well plate into which the cells were added, were added with 50 uL of serum-free Opti-MEM I (Thermo, 25200056) reduced serum medium for dilution of the aforementioned plasmid DNA, and mixed gently; [0299] b. it was gently mixed with Lipofectamine 2000 (Thermo, 11668019) before use, and then 1.8 uL of the Lipofectamine 2000 was diluted in each well, i.e., in 50 uL of the Opti-MEM I medium. It was incubated at room temperature for 5 minutes. Note: it was continued to perform step c within 25 minutes; [0300] c. after incubation for 5 minutes, the diluted DNA was combined with the diluted Lipofectamine 2000. They were gently mixed and incubated at room temperature for 20 minutes (the solution might be cloudy visually). Note: the complex was stabilized at room temperature for 6 hours.
(§3) At 72 h after transfection, the cells were subjected to RNA extraction with a SteadyPure Universal RNA Extraction Kit AG21017 kit, and the RNA concentration was detected with an ultramicro spectrophotometer. The RNA product was reverse transcribed by using an Evo M-MLV Mix Kit with gDNA Clean for qPCR AG11728 reverse transcription kit, and the reverse transcribed product was detected by using a SYBR Green Premix Pro Taq HS qPCR Kit (Low Rox Plus) AG11720 qPCR kit.

[2] = target: T2, CasRfg.2 (Cas13d) (metagenome)
T2 chain: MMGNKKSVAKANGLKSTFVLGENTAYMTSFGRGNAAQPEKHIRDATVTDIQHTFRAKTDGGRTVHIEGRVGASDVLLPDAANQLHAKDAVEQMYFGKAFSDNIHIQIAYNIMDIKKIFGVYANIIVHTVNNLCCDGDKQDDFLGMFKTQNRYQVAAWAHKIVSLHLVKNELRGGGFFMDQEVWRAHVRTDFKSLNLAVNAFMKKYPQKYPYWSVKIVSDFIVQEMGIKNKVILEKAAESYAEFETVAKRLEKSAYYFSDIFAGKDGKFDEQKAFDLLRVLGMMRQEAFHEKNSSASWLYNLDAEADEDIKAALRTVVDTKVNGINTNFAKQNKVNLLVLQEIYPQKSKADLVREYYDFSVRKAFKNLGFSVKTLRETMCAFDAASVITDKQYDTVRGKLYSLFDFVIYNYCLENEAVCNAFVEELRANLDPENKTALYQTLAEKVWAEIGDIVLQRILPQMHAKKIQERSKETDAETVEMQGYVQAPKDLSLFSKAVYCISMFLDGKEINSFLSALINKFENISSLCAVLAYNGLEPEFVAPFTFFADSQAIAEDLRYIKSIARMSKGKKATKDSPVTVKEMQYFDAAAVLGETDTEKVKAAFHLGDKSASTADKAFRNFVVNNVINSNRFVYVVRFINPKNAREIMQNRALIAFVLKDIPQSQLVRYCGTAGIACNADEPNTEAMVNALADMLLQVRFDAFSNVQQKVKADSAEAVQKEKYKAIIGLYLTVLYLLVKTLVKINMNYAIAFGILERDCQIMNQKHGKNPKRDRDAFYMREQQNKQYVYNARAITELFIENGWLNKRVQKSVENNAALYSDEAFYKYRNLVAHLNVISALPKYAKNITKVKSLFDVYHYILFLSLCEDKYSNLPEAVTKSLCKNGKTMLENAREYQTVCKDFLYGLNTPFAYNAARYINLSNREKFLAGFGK
Description: as §1, §2, §3

[3] = target: T3, Cas13m.5 (Bacteroidetes bacterium)
T3 chain: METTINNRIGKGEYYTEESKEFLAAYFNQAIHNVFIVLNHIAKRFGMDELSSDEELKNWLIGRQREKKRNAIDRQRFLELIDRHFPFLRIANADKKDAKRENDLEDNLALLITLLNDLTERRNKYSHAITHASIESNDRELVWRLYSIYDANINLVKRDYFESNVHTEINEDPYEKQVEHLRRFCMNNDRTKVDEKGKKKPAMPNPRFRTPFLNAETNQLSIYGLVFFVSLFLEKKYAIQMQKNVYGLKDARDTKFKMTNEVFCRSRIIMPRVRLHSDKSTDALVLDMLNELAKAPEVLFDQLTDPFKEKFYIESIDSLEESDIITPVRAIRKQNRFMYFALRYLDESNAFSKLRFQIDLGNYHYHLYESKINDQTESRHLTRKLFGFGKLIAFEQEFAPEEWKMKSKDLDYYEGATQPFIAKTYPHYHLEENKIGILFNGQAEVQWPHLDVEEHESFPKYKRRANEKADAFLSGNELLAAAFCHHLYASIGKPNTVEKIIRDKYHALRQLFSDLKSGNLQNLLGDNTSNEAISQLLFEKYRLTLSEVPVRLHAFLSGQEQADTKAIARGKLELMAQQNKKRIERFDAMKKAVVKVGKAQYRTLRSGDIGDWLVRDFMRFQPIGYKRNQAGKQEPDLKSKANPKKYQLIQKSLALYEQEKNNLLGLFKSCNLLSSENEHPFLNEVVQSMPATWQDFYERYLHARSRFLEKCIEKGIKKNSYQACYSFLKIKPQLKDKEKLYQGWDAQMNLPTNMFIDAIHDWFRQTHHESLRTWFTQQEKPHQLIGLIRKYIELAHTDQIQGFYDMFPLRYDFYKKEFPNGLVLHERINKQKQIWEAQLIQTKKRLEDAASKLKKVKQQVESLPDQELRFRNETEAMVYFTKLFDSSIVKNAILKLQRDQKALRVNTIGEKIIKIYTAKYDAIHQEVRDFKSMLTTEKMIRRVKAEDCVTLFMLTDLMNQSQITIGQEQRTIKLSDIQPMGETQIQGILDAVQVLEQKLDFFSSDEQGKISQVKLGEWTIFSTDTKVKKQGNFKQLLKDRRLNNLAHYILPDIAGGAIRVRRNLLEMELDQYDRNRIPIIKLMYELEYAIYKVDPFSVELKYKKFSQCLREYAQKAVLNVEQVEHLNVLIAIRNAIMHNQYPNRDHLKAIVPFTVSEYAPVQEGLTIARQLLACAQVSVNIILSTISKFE
Description: as §1, §2, §3

[4] = target: T4, Cas13m.2 (metagenome)
T4 chain: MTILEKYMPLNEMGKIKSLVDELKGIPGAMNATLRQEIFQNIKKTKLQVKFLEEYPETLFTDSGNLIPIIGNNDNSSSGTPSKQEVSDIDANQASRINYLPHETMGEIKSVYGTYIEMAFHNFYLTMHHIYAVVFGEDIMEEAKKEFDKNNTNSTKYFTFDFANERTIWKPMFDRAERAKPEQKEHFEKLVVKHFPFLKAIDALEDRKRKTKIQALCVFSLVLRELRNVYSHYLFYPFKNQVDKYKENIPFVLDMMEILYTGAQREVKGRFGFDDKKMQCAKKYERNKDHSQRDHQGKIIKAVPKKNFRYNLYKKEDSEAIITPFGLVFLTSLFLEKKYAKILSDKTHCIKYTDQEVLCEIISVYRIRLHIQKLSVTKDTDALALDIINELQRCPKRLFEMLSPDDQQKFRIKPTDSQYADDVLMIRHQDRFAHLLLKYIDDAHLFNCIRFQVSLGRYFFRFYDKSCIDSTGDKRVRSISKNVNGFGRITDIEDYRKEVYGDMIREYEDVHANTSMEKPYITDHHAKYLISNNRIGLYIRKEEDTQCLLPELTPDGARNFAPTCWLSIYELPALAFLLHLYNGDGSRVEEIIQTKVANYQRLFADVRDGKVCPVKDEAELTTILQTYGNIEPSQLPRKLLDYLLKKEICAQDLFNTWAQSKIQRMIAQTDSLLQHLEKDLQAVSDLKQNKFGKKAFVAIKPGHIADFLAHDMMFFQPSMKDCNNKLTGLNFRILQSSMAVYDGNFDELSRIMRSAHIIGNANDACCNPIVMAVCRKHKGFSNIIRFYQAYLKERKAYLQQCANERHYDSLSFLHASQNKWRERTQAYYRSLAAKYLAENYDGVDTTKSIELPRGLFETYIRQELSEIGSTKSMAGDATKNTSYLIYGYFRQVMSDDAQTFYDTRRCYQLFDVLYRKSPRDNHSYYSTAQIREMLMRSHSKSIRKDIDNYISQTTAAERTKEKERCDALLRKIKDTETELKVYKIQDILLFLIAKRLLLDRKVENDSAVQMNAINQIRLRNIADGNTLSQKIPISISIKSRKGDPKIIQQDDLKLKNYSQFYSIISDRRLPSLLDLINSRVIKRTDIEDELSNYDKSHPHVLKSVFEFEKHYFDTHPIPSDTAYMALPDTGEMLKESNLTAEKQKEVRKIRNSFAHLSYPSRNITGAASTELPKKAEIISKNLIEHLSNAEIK
Description: as §1, §2, §3

B1: AQp1 gRNA Cas13m.3-r (DR-guide) ; AQp1 mRNA site (20 nt guide) (ssRNA ; ssRNA)
RNA 1: GUUGUAGAAGCCGUUCAUUCGGGACGGUAUGACAACGAAGACAAAGAGGGUCGUGG
RNA 2: CCACGACCCUCUUUGUCUUC
With B1 the activity [1] was 0.78 relative mRNA level.

B2: AQp1 gRNA CasRfg.2-r (guide-DR) ; AQp1 mRNA site (20 nt guide) (ssRNA ; ssRNA)
RNA 1: GAAGACAAAGAGGGUCGUGGGGUUUUACACCCGUGUAAAACUACACAGUUCUAAAAC
RNA 2: CCACGACCCUCUUUGUCUUC
Binder B2 has an activity [2] of 0.67 relative mRNA level.

B3: AQp1 gRNA Cas13m.5-r (DR-guide) ; AQp1 mRNA site (20 nt guide) (ssRNA ; ssRNA)
RNA 1: GUUGUGUGUGCCUUUCAAAUUGAAGGCGUUCCCAACGAAGACAAAGAGGGUCGUGG
RNA 2: CCACGACCCUCUUUGUCUUC
In the case of B3, the activity [3] is reported as 0.74 relative mRNA level.

B4: AQp1 gRNA Cas13m.2-r (DR-guide) ; AQp1 mRNA site (20 nt guide) (ssRNA ; ssRNA)
RNA 1: GUUGUAGAUGACCUCGUUUUGGAGGGGAAACACAACGAAGACAAAGAGGGUCGUGG
RNA 2: CCACGACCCUCUUUGUCUUC
In the case of B4, the activity [4] is reported as 0.83 relative mRNA level.
